# How the values were obtained:
# [1] = target: T1, EspG5 (M. tuberculosis), crystallization construct (M. tuberculosis H37Rv, UniProt O53943 1-300); assay: crystal structure
# T1 sequence: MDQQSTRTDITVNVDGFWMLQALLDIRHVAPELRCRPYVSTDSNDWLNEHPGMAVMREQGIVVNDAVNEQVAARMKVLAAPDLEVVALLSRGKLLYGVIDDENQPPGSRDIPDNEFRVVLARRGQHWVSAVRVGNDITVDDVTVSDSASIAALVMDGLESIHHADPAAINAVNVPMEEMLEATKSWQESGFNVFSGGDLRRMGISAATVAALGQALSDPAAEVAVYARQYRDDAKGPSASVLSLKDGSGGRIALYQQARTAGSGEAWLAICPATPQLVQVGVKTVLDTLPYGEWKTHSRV
# [2] = target: T2, EspG5 (M. tuberculosis), from His6-SUMO3-EspG5, tag cleaved (M. tuberculosis, UniProt O53943 1-300); assay: ITC
# T2 sequence: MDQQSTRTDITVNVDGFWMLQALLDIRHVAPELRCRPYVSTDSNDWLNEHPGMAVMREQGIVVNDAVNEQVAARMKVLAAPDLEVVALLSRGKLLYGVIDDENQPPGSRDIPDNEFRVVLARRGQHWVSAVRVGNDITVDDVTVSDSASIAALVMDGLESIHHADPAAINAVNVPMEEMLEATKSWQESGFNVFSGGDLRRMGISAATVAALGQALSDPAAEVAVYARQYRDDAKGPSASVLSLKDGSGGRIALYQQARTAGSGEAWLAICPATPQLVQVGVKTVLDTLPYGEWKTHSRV
Binder,binding result [1],Kd [2]
"PPE41 (M. tuberculosis), chain of the crystallized complex (natural protein) MHFEAYPPEVNSANIYAGPGPDSMLAAARAWRSLDVEMTAVQRSFNRTLLSLMDAWAGPVVMQLMEAAKPFVRWLTDLCVQLSEVERQIHEIVRAYEWAHHDMVPLAQIYNNRAERQILIDNNALGQFTAQIADLDQEYDDFWDEDGEVMRDYRLRVSDALSKLTPWKAPPPIAHSTVLVAPVSPSTASSRTDT",binds,–
"His6-PE25–PPE41 heterodimer (M. tuberculosis), wild type (complex) chain 1: MSFVITNPEALTVAATEVRRIRDRAIQSDAQVAPMTTAVRPPAADLVSEKAATFLVEYARKYRQTIAAAAVVLEEFAHALTTGADKYATAEADNIKTFS chain 2: MHFEAYPPEVNSANIYAGPGPDSMLAAARAWRSLDVEMTAVQRSFNRTLLSLMDAWAGPVVMQLMEAAKPFVRWLTDLCVQLSEVERQIHEIVRAYEWAHHDMVPLAQIYNNRAERQILIDNNALGQFTAQIADLDQEYDDFWDEDGEVMRDYRLRVSDALSKLTPWKAPPPIAHSTVLVAPVSPSTASSRTDT",–,48.1 nM

# Source: publication PMC4192059 (Molecular microbiology, 2014)
